Target: T1, Ubc9 (wild type) (UniProt P63279 1-158)
T1 construct: Ubc9, the single SUMO conjugating enzyme (E2); the crystal structure PDB 2GRN chain a served as its model; Uniformly 15N-labelled for NMR; also called WT Ubc9; Ubc9WT; source: recombinant, purified (Ni-NTA chromatography, gel filtration)
Test: ITC; 2 μl additions of peptide to 200 μl of WT Ubc9 or Ac-Ubc9K65; 25 °C; pH 8.0, 20 mM potassium phosphate, 100 mM NaCl; iTC200; fitted assuming 1:1 binding stoichiometry
Conditions: both partners purified

T1 sequence (P63279 whole entry): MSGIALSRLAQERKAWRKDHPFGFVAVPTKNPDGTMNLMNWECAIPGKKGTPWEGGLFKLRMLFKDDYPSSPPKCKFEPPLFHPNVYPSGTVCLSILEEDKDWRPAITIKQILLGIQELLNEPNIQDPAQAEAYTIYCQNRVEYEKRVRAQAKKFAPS

B1: CBP NDSM peptide (peptide)
chain: VKVEVKEEEESSSN
modifications: Synthetic peptide; true ends and caps are only in Figure 1A. Limits used here are the Psi-K-x-E core through x10 (x1-x10 = VKEEEESSSN, Supplementary Table 1), around sumoylation site K1056
- Kd: 57 µM

Reference: article PMC5727262 (Scientific Reports, 2017)
